Assay results: patent US20110301093

T1: mutant BH3 peptide in which Thr119 was substituted to alanine (T119A)
T1 chain: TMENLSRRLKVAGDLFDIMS

T2: peptide corresponding to Beclin's BH3 domain (aa 108-127)
T2 chain: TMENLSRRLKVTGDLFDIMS

B1: Flag-tagged DAPk (protein)
chain: MTVFRQENVDDYYDTGEELGSGQFAVVKKCREKSTGLQYAAKFIKKRRTKSSRRGVSREDIEREVSILKEIQHPNVITLHEVYENKTDVILILELVAGGELFDFLAEKESLTEEEATEFLKQILNGVYYLHSLQIAHFDLKPENIMLLDRNVPKPRIKIIDFGLAHKIDFGNEFKNIFGTPEFVAPEIVNYEPLGLEADMWSIGVITYILLSGASPFLGDTKQETLANVSAVNYEFEDEYFSNTSALAKDFIRRLLVKDPKKRMTIQDSLQHPWIKPKDTQQALSRKASAVNMEKFKKFAARKKWKQSVRLISLCQRLSRSFLSRSNMSVARSDDTLDEEDSFVMKAIIHAINDDNVPGLQHLLGSLSNYDVNQPNKHGTPPLLIAAGCGNIQILQLLIKRGSRIDVQDKGGSNAVYWAARHGHVDTLKFLSENKCPLDVKDKSGEMALHVAARYGHADVAQLLCSFGSNPNIQDKEEETPLHCAAWHGYYSVAKALCEAGCNVNIKNREGETPLLTASARGYHDIVECLAEHGADLNACDKDGHIALHLAVRRCQMEVIKTLLSQGCFVDYQDRHGNTPLHVACKDGNMPIVVALCEANCNLDISNKYGRTPLHLAANNGILDVVRYLCLMGASVEALTTDGKTAEDLARSEQHEHVAGLLARLRKDTHRGLFIQQLRPTQNLQPRIKLKLFGHSGSGKTTLVESLKCGLLRSFFRRRRPRLSSTNSSRFPPSPLASKPTVSVSINNLYPGCENVSVRSRSMMFEPGLTKGMLEVFVAPTHHPHCSADDQSTKAIDIQNAYLNGVGDFSVWEFSGNPVYFCCYDYFAANDPTSIHVVVFSLEEPYEIQLNQVIFWLSFLKSLVPVEEPIAFGGKLKNPLQVVLVATHADIMNVPRPAGGEFGYDKDTSLLKEIRNRFGNDLHISNKLFVLDAGASGSKDMKVLRNHLQEIRSQIVSVCPPMTHLCEKIISTLPSWRKLNGPNQLMSLQQFVYDVQDQLNPLASEEDLRRIAQQLHSTGEINIMQSETVQDVLLLDPRWLCTNVLGKLLSVETPRALHHYRGRYTVEDIQRLVPDSDVEELLQILDAMDICARDLSSGTMVDVPALIKTDNLHRSWADEEDEVMVYGGVRIVPVEHLTPFPCGIFHKVQVNLCRWIHQQSTEGDADIRLWVNGCKLANRGAELLVLLVNHGQGIEVQVRGLETEKIKCCLLLDSVCSTIENVMATTLPGLLTVKHYLSPQQLREHHEPVMIYQPRDFFRAQTLKETSLTNTMGGYKESFSSIMCFGCHDVYSQASLGMDIHASDLNLLTRRKLSRLLDPPDPLGKDWCLLAMNLGLPDLVAKYNTSNGAPKDFLPSPLHALLREWTTYPESTVGTLMSKLRELGRRDAADFLLKASSVFKINLDGNGQEAYASSCNSGTSYNSISSVVSR
B2: DAPk's catalytic domain (DK1) (protein)
chain: MTVFRQENVDDYYDTGEELGSGQFAVVKKCREKSTGLQYAAKFIKKRRTKSSRRGVSREDIEREVSILKEIQHPNVITLHEVYENKTDVILILELVAGGELFDFLAEKESLTEEEATEFLKQILNGVYYLHSLQIAHFDLKPENIMLLDRNVPKPRIKIIDFGLAHKIDFGNEFKNIFGTPEFVAPEIVNYEPLGLEADMWSIGVITYILLSGASPFLGDTKQETLANVSAVNYEFEDEYFSNTSALAKDFIRRLLVKDPKKRMTIQDSLQHPWIKPKDTQQALS

Experiments:
[1] = molecular target: Flag-tagged Beclin-1
Sequence of Flag-tagged Beclin-1 (chain, as listed by the source): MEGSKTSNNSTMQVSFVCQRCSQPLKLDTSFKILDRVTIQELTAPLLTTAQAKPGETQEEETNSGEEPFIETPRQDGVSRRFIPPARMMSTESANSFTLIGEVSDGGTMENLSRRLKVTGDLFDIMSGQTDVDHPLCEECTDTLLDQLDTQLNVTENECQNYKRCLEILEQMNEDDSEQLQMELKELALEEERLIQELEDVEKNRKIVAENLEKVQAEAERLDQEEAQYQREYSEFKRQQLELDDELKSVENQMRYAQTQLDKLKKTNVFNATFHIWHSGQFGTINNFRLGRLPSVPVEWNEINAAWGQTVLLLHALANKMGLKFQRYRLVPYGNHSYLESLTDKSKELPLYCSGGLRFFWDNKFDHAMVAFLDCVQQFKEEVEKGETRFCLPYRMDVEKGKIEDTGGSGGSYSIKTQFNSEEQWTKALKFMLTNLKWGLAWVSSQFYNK

[2] = molecular target: GST-Beclin-1
Sequence of GST-Beclin-1 (chain, as listed by the source): as above

[3] = molecular target: T1, mutant BH3 peptide in which Thr119 was …
[4] = molecular target: T2, peptide corresponding to Beclin's BH3 …

| Protein | in vitro kinase assay, phosphorylation ([γ-33P]ATP, autoradiogram) [1] | in vitro kinase assay, phosphorylation ([γ-33P]ATP, autoradiogram) [2] | peptide phosphorylation, filter assay [3] | peptide phosphorylation, filter assay (total counts against substrate concentration) [4] |
| --- | --- | --- | --- | --- |
| B1 | The phosphorylation by Flag-tagged (60 ng) DAPk was also observed when Flag-tagged Beclin-1 (250 ng), immunoprecipitated from HEK293T cells, was used as a substrate | GST-Beclin-1, but not GST alone, was phosphorylated by DAPk |  |  |
| B2 |  |  | Changing Thr119 to alanine strongly inhibited the extent of peptide phosphorylation | DAPk phosphorylates Beclin's BH3 peptide in a dose-dependent manner |
